21 sequences from the DeepSol protein solubility set can be followed below.

The series in a line: soluble on expression in E. coli; label from the status in PepcDB or PDB records.
For the sequence “MAAATATAAATSKKMTYEFTIDDDELSEDGKPSTDQATMCNIYKLNLPASASILSKQIAKSQAKRAKKEERHRRRVDLSTVREQDETRVSNSEENSQNASPRPMTASALVPPDEIPDSAPASHCGGGGGRSRIDSAPLGVKLQRQASLPEDQRKAEPMDEEEAELLAMLLGGIERNERKQMTLNGAGNQKIQEAPIVQAPQIPPSPGLPRLPPGAKVSEWLLERSSSPDNVSVISSVLLEDSGLLLNYQNSVGDEEEDVFFDAEEEKPDDVVNCVEHELQGKSLRVFVRDLSHVLGLSLNRNMAAMTQSLVRVEEETTTTDGPAANDSFRTGRSTSVSPRPTNEQFLRNTNGSATFNVKHSSTLARLQKLTPPNNGNTNPILSTTTTPLSSRTTRSVLRVHNVNSVPRPSVQNSTMSKSSVTANQTNRRAFSGVRMPDMNPTLQKSSPPVVTINPLTPSRPASVASSIGARSGVNGTMTASNLEGLQDLIQQQEDALRRAALNDQSTERKMSWQSDQDANNRQSTSVHSSLGSICSSKSIDGAHALSKMGTPTASRIPTPRSRLPTPRGSNLPKRVYVFFGNFGPNSR”, the “soluble on expression in E. coli” value is reported as “not soluble”.

For the sequence “MSCALLIENLTCQYDAQTVLKSLSLQVNPGEIVCLLGASGCGKTTLLKAIAGLLPLASGQLSLNCVTLDDGKRWLPPEQRNIGMIFQDYALFPHLTVAQNVGFGLDAMPAKQKEAKIAEMLALVHLDAFAERYPHQLSGGQQQRVAIARALAYKPDLLLLDEPFSNIDTQVRHELIIEIRKIFKQQGVTAIFVTHSREEAFAFADKMAVMNRGVIEQYGTAAELYYQPSSQFVADFLGGGSYLSAKRISETQYQTALGVVEAIARQPIAVEAECKLLLRPQQVQIRAEEESSVTVTEQQFMGDHCRYLIDAHGTQLIATSSQPLELGQAVSVNIDTQGVLAFA”, the “soluble on expression in E. coli” value is “not soluble”.

Consider “MNAKAVKEVLKAHVGRAYAPYSGFPVVALVEAEGEVFLGVNVENASFPLSQCAERNAVAAMVLAGKRRLERVHVYSPKGPIPPCGGCRQVLMEFGGPEVEVVLHGPEEEVRTTLGALLPLAFRL”, for which the “soluble on expression in E. coli” value is “soluble”.

On to “ENRDCYSLYRMNPADGKIQQLEVSEDLVNSFSLAQNAPVMVYYGQSASNSDRLYTMNTKKMKSSLLEDLSKDILKDVELGECKAWSFTNSRGDTIYGRYYLPPHFDANRKYPMIVNYYGGCSPVSRNFESRYPHHAYAALGYVVYVIEPSGATGFGQEFSARHVNTAGEGVAQDIIEGTKQFCKEHAFVNDKKIGCIGASYGGFMTQYLQTQTDIFAAAISHAGISDHTSYWGEGYWGYSYSEVSMANSYPWSNPDLFVKQSPLFNADKIHTPLLFLHGDADVNVPVGESIQMFTALKLLGRETAFVAVTGQDHHIVDYGKRIQWQNTIFAWFAKWLQ”, for which the “soluble on expression in E. coli” value is on record as “not soluble”.

For the sequence “MKTPALPTVQSPLLSSLPGVKHAFFTRQGGVSKGIYDSLNVGRGSQDEPADVEENRARIARWFGGGPEDLNVCYQIHSTIAIVADGSWGDARPEGDAVVSKTPGVICGAMAADCAPVLLVDPEARIVAAAHAGWRGALDGVVQSAVDRMVELGASPANITGVVGPCIGPKSYEVGLEFLHRFEADCPGSGRFFKPGASEDKRFFDLPAFVLDRLATAGVERREWVGRDTRAEEEWFFSNRRAFLNNDGDYGRLLSAITLEA”, the “soluble on expression in E. coli” value was “soluble”.

Consider “KAPFLILMHRNPDPDAMASAMALKTIFDKWGVSSEIAYGGKIGYDENKAMVNLLSIKLNPIDEINLSRYCSIAVVDSSSSKTLPIDVEDSKLSVIIDHHNDSDIVAKYMDILPEIGATATILTKYLLELEIAPNRDLATALYYAITSDTNYFKRKTSKKDFEAASYLQGLMDPKVLEMIENPDM”, for which the “soluble on expression in E. coli” value was “not soluble”.

For “KEIIVNENDILLLWDGSNAGEIFLGKKGILSSTMVKLEQKNKIMDDLYLFYSLKLKESFLKSQTKGTGIPHVDKKIFENIKIPLPPLEEQKQIAKILSDFDN”, the “soluble on expression in E. coli” value is “not soluble”.

For “MASGRQSGRDTEEYGGLSNSGISSGSHVKDTAYYERRRKNNAAAKKSRDRRRIKEDEIAIRAAYLERQNIELLCRIDALEVQLAAITSAKVTTAAAAAAALEHHHHHH”, the “soluble on expression in E. coli” value is reported as “not soluble”.

For “MGSDKIHHHHHHMAIRSNHILVSRTDNIGDIVLTLPMVARLRQLNPKAKISFLCRAYAAPLVRFCTDIDEVIELENIADDPAGFLRKSGIDTVILAQPDRTLAQAAFRARVRHRIGNARQKIYLMLYCNRRVRFSKRTTEDHEAQINFRFLSPYGSRDIPTREQIPDLYHFDIPEDKAISDMQAPYAFNLVLHTKSNGHGREWPIEHYAALAELLLARRDVHLWLSGSAKEGEWLKANGGALLAKPNVTSLCGTQTLGQLTTFIHQADGLIASGTGPLHLSAAIGQRTLGLFPPTRPMHPGRWAALGKRAQNLVRDKSCRDCEKLETISCDCMVQLSPQSVLEIVEGWIRDKSAA”, the “soluble on expression in E. coli” value is given as “not soluble”.

For the sequence “MSLQADEQSNGKIKFSKFKVNIKNKDNKSNWTDMGTLVVEKVEYGIATGLNNDKQGGGHSSTFFSLEEEEVNNFVKAMTEGGSFKTSLYYGYKYEQSDEKGIQNKEIITKIEDINCSKHITFSGDKIAKNEGHHHHHH”, the “soluble on expression in E. coli” value is given as “not soluble”.

Take “MGSDKIHHHHHHMSEFYGAQHRQWQEHFDGVAMADRVRELIVLPSIPEEHAGFIGSRDFFFLSTIDHRGFPTCSYKGGQPGFVKILDDTTLAFPSLDGNSMYLSMGNLSLNPKIGMLFIDFETPHRIRVHGTASVKPDDTLLAEYQEAELIVRIKIEEIFVNCPRYIHKHQRVQHSPYVPQAGCTTRTPQWKRLDSVQDVLRQPDLEKVSRMGGPITIEEYMELVLQGDA”: the “soluble on expression in E. coli” value is listed as “not soluble”.

Take “MQLILLLVSLLMLIATFIEARDSDIDKKSLRTERLGFCPRYETWRKCGNGCEKSCTHPRQPPFSQCKLPCIPYSCRCNPGFYRDNQGTGRCVRLRRCKKW”: the “soluble on expression in E. coli” value was “not soluble”.

As for “MAVGAPFLYRYSLYNCAYVILNGKVLGIVPKSYIPNYSEFYEKRWFTEGFNIKGLNVDLDFQKEVPFGTDLIFSFKNLKVGFEICEDLWVTIPPSSNLALMGANLICNLSASNELVSKSSYRKSLVQNQSARTMCSYIYSSAGVHESTTDLLFSGHMIIAENGTIIKENNRFKRENDLLTGIVDLFKLDAERIKNISFRNSTFNENNEPRFIPFNLENTEIKNFDREIDKHPFLPKSQYAMEARCEEILNIQAAALAKRLEHTNLKKAVIGISGGLDSTLALLVVVKTFDMLNIPRENIITITMPGFGTTDRTYNNAVTLCKELHCDFREINIVNAALQHFEDIGHDKDIHDVTYENVQARERTQILMDLANKEGGLLIGTGDLSELALGWCTYNGDHMSMYSVNCSIPKTLVRFLVNYFANHEISNDAKEALLDILDTPVSPELLPKDKEGKIAQKTEDIVGPYELHDFFLYHFIKHGSSPERILFLAKEAFKNDYDEETLKKWLDKFIRRFFTQQFKRSALPDGPKVGSISLSPRGDWRMPSDAVYNDFLILEHHHHHH”, the “soluble on expression in E. coli” value is recorded as “not soluble”.

Turning to “MALLLVMGIPASGKSTFRRKIQTAHRELLESTSFDDFRMMRTRSSDKNARQTRKSFECHVESCISESTSKIYVIEDIFYLKSMRHPFQKIAKRHGLQFGIIFLKVGIVEALRRNSHRTGIEKQKNETIRKIFEKMEDPDEILENSIVLETDEVEIDVEVVMNKLKFDFTAKKPIVPEVSLKKSHIQKPPPPSKLESLDVLTRRLVSELMQNDKTMNGRKLSDARKKLLIDLSGNLEISNENDPKFLYDLKLKLIEFYDK”, the “soluble on expression in E. coli” value is given as “not soluble”.

In the case of “MSLKRKVLFTAVMVLAGLQLLSGCGKTEASANDTVVLRYAYASNSQPVIDSMKKFGELVEEKTDGKVQIEYFPDGQLGGETELIELTQTGAIDFAKVSGSALESFSKDYSVFAIPYIFDNEKHFFKVMDNQALMQPVYDSTKKLGFVGLTYYDSGQRSFYMSKGPVTSPDDLKGKKIRVMQSETAIKMVELLGGSPVPMGSSEVYTSLQSNLINGAENNEFVLYTAGHGGVAKYYSYDEHTRVPDIVIMNEGTKERLTAKQEQAIEEAAKESTAFEKTVFKEAVEEEKKKAQAEYGVVFNQVDSEPFQKLVQPLHESFKNSSEHGELYQAIRQLADEGGSHHHHHH”, the “soluble on expression in E. coli” value is “soluble”.

As for “MERVAPNGQFKDVGVDQLFFSTTDAQGRIQETNNTFVELSRYTEEELRNAAHNIIRHPFMPGGVFKIMWDKLQRGETFAGYVRNLAHSGETYDVFATVTPIPGTHDYLSVRQRPCHDDHRALAMTIYAEVGDYEAQLRKDGMSAREAAEAGAGLIGDKLRESGFDNFDAYAHAMLPWEVFCRENMSTGLPQREVAGDLGTELAQAHDVHDHLDEWMLRLDELLTTAQQLGEAREELVDSLGQTSSLGDTIDARSASETLQIVQFQLNVWKGMQKIVDSYVVELAELITTLANDTLRERFQISVSRLHTAMLATFLAELIDGTSATANTEHKVALLKATMRDSLEAIDRGAFHRAQLVRSTISCIRTVTSLMESPRSLLTEAIREAQSLNNDELSAAIATELERSERAANNMHQLVATLESTATTPDIAAMLAEL”, the “soluble on expression in E. coli” value is “not soluble”.

As for “MGSDKIHHHHHHMLWSMTDGATPATPPTAAPEERFPHVNPLVYRFVVDVTFLPVLLTGMHIDVHGREHVPPPGTPLVVAANHQSALDPFLIARALPPGRYLQFMAKRELFVPVIGDIIRAGGSFPVDRESNDVGAIRTSLRILKAGGTVGIFPQGTRGGQELHGGAALIAARGRAPILPAGISHDGKRWVVRFGEPLPARGGIKANTEELGRRLQVLAQPVGRHL”, the “soluble on expression in E. coli” value is “not soluble”.

Consider “MGSDKIHHHHHHMCIMASCLSPNWSVFDIDQSQTLQVAVQEAHARSQPLAIRGGGSKTFYGRQTPACDLLDLGGHRGIIDYAPNELFITLRAGTSLQALEAQLAEAGQMLPFEPPHFGPAATIGGTLACGFSGPRRPYAGSARDMVLGMRILNGQGEILRFGGQVMKNVAGYDVSRLMVGALGTLGVLLEVSLKVLPRPDSTVTLVWPMDPVTAVQRMNDWAGQPLPLSATAYDGEHLYIRLSGTGSAVRAAQTRLGGERLPDAEAAAFWVALREQRNDFFQGDAPLWRLAVAPATPPLPLGDQTLIEWGGGQRWLRGALDATALRQLAAEHGGHATLFRGGNRRGEVFHPLAPPLLAMQQRLKAAFDPRGILNSGRLYATL”, for which the “soluble on expression in E. coli” value was “not soluble”.

Turning to “GPAIAENLYFQSPQLNGGGGDDLGANDELISFKDEGEQEEKSSENSSAERDLADVKSSLVNESETNQNSSSDSEAERRPPPRSESFRDKSRESLEEAAKRQDGGLFKGPPYPGYPFIMIPDLTSPYLPNGSLSPTARTYLQMKWPLLDVQAGSLQSRQALKDARSPSPAHIVSNKVPVVQHPHHVHPLTPLITYSNEHFTPGNPPPHLPADVDPKTGIPRPPHPPDISPYYPLSPGTVGQIPHPLGWQGQPVYPITTGGFRHPYPTALTVNASMSRFPPHMVPPHHTLHTTGIPHPAIVTPTVKQESSQSDVGSLHSSKHQDSKKEEEKKKPHIKKPLNAFMLYMKEMRAKVVAECTLKESAAINQILGRRWHALSREEQAKYYELARKERQLHMQLYPGWSARDNYGKKKKRKRDKQPGETNEHSECFLNPCLSLPPITGEKKSAFATYKVKAAASAHPLQMEAY”, the “soluble on expression in E. coli” value is reported as “soluble”.

As to “MTGSQKLILTGRPFLHHQGIINQVSTVTKVIHHELEVAASADDIWTVYSWPGLAKHLPDLLPGAFEKLEIIGDGGVGTILDMTFVPGEFPHEYKEKFILVDNEHRLKKVQMIEGGYLDLGVTYYMDTIHVVPTGKDSCVIKSSTEYHVKPEFVKIVEPLITTGPLAAMADAISKLVLEHKSKSNSDEIEAAIITVHHHHHH”, the “soluble on expression in E. coli” value is “soluble”.

For “MIPKVIHYCWFGGNPLPDNLKKYIKTWREQCPDYEIIEWNEHNYDVSKNVFMREAYTKKNFAYVSDYARLDIIYTYGGFYLDTDVELLKSLDPLRIHECFLAREISCDVNTGLIIGAVKGHHFLKSNMSIYDKSDLTSLNKTCVEVTTNLLINRGLKNKNIIQKIDDITIYPRNYFNPKNLLTGKVDCLTSVTYSIHHYEGSWKSSSFISDSLKIRVRLIIDFLFGYGTYRMLLRFLKLKKLEHHHHHH”, the “soluble on expression in E. coli” value is on record as “soluble”.
